Assay [1] has as its target mature NIH45-46 IgG (human). The assay is described as follows: BLI.
For assay [2], the target named is 426c Env trimeric gp140 (wild type) (HIV-1 clade C, isolate 426c (HVTN503 participant)) (UniProt M4Q8P8). The assay is described as follows: BLI.

“426c Env trimeric gp140 lacking the NLGS at position 276 (N276D) (natural protein)”: the dissociation constant (Kd) in assay [1] was 3.66 nM. mature NIH45-46 IgG (antibody) showed a Kd in assay [2] of 10.6 nM.

For the origin of these results see PMC3620356.
